Experimental data from the supplement of paper PMC9170038.

Tested on: MS2 coat protein
Assay: apparent KD of MS2 coat protein; higher = weaker reporter binding
Details: Eterna round: R107
In short: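 Apparent KD stands for the median, per design, of fits to normalised cluster binding curves. The curves came from titrating on-chip-transcribed RNA switches on Illumina sequencing clusters with SNAP-549-labelled MS2 coat protein, twofold from 0.7 or 1.5 nM to 3 µM. Buffer was 100 mM Tris-HCl pH 7.5, 80 mM KCl, 4 mM MgCl2, without or with constant ligand.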

[1] = input ligand: theophylline 20 uM
[2] = input ligand: theophylline 2 mM
[3] = input ligand: tryptophan 2.4 mM

Sequence	apparent KD of MS2 coat protein (input ligand: arginine 13.2 mM) [nM]	apparent KD of MS2 coat protein [1] [nM]	apparent KD of MS2 coat protein [2] [nM]	apparent KD of MS2 coat protein [3] [nM]	apparent KD of MS2 coat protein (input ligand: none) [nM]
AGAUUCGACACGGCCGCCACUUGUGGUGGAUUAUCCUGUGUCGAACAUGAGGAUCACCCAUGUACAAGGACCGGGUGUUGAGUCU [XTryp B #20]	60.2	151	136	–	–
UGUAACAUGAGGAUCACCCAUGUGAGUGAUACCAGACUAGUAUUAGUCCCUUGGCAGCACGCUGGGCGAGUGUAUAGUCUAUGCG [Same State - Theophylline A (Freestyle 15)]	69	125	–	75.5	–
ACACAUGAGGAUCACCCAUGUGCGCUGGAAGGAGCGCAGAAUCAUGCAGGUAGGUCGCCAGUGCCCUCUACUAAAGGGAAAAGAG [Diatsoceri]	66.5	120	92.9	68.5	72
UGUAUGGACUGAAGGAGCGCAUCAAAAUAACAUGAGGAUCACCCAUGUAAGGCGAAAGCCGUGCAGGUAGGUCGCAGUCCAUACU [ArgBX 3]	14.9	17.3	18.8	15.3	15.6
CCUGAUAACUGAAGGAGCGAGAAACCCUACAUGAGGAUCACCCAUGUAUACACGGGAACUUCUCAGGUAGGUCGCAGUUUGUCAG [Adiso]	48	165	138	71.5	101
UCGGGCAUAGCGGCCGCCACUGUUUGGCGUGCGGAUGACGGAACAUGAGGAUCACCCAUGUUGUUUAGGACCGGGCUUGCGUCGU [zyzmullin]	14	17.8	14.5	–	–
AAACUGAUCUUCAGGAGUCACUAUAUCUCCCGAGGACCGGUACGGCCGCCACUCGAACGUUUACAUGAGGAUCACCCAUGUGACU [theeternabot_exclusion_MS2_Trp_A_4]	13.6	16.4	14.9	–	–
ACAUCCAGGUUAAUCGUGGGCAUACUCGAUACCAGUAUUUUAAUCUACCCUUGGCAGCGACAUGAGGAUCACCCAUGUGCGAUGA [XTheo A #12]	11.7	14.1	–	13.4	–
AAAAUAAAUAAAACACGUAACAUGAAGGAUACCAGCCAGAAAACUGGCCCUUGGCAGCCUCUACAUGAGGAUCACCCAUGUCGUG [Mat - Same State Theophlline A - Mod of Eli - D16]	156	114	–	293	–
AAACAUUGCUCAGAUACCAGACAUGAGGAUCACCCAUGUACCAAGGUAACCGAAAGGCAUGUCCCUUGGCAGCUGAGCAAUGAAA [MAT - Exclusion Theophlline B - Mod of Eli - D15]	13.5	17.4	–	13	–
UUCUACAUGAGGAUCACCCAUGUGGGUGAUACCAGCACUUUUUGGUGCCCUUGGCAGCACAUGAGAAUACCGUACGAUCGGCGAU [Arainbi]	122	500	–	609	–
AGUCUUAUAGGAAGGAGCGCAUACUUCACAUGAGGAUCACCCAUGUCAAGACGUGAGUCAGUGCAGGUAGGUCGCCUAACUAAGA [Same State - Arginine B (Freestyle 13)]	27.2	29.7	32.1	27.7	29.2
GGGCAAGAGGGAAGGAGCGUCAGCUGAGUCACAUGAGGAUCACCCAUGUCGCACAUAGUGUGACAGGUAGGUCGCCCUCUGCCCU [Zaistiqu]	74.3	158	201	133	131
GGAAUUAAGACUGAUACCAGUCAAGAUAAUCAUAAGAAUAAACAUGAGGAUCACCCAUGUGACCCUUGGCAGCAGACUAAUACCG [Same State Theophylline B GF 26]	38.5	51.1	–	39.2	–
CCAUAAGUACCGGUCCUCAGAUCCUCAUGACGAGGACCGGUACGGCCGCCACUCGAAACAUGAGGAUCACCCAUGUAAUAAUACC [Brourdmod18]	26.4	101	97.6	–	–
ACAUGAGGAUCACCCAUGUGUGUAAGUCCUCGAGGACCGGUACGGCCGCCACUCGAUUGAGUGUAAGUUGAAUGUAACAUUCAAC [whbob_SS_trypto A_2s10]	16.4	22.8	18.1	–	–
CGGCUCAUAAUGGAUACCAGUCCAGCAUAGAAACCUUGACACAUGAGGAUCACCCAUGUUGACCCUUGGCAGCCAUUGAUCAUAC [theeternabot_exclusion_MS2_Theo_B_28]	23.1	36.5	–	21.7	–
CGGUUUGUGAUGGAUACCAGCAGUGUGGCUGUUUAUCCUGACAUGAGGAUCACCCAUGUGUGCCCUUGGCAGCUGUUGUGGGCUG [8.aC]	64.1	105	–	77	–
GCUUGGGUCGCACGGCCCUGGCGGUGCGAUACCAGCACGGUAACGUGCCCUUGGCAGCGCACAUGAGGAUCACCCAUGUGGUGCG [#1 Exclusion - Theophylline A Attempt #23 (HarryS)]	9.42	25.6	264	12.4	12.6
GAAUAUUACAUGAGGAUCACCCAUGUAGAUACCAGCCUUGAUUGUGGCCCUUGGCAGCUACGCCGUGAAUGCCUCAGUUGCUUAC [Atidi]	36.8	121	–	72	–

Sequence	apparent KD of MS2 coat protein (input ligand: arginine 13.2 mM) [nM]	apparent KD of MS2 coat protein [1] [nM]	apparent KD of MS2 coat protein [2] [nM]	apparent KD of MS2 coat protein [3] [nM]	apparent KD of MS2 coat protein (input ligand: none) [nM]
UUUACAUGAGGAUCACCCAUGUGCCAUGAUACCAGACAUGAAAAUGUCCCUUGGCAGCAUGGGUGUAGCGUCGGGAAACCGACGC [Kohoutovice]	97.5	545	909	14	35
ACAUGAGGAUCACCCAUGUAUGGCGCGGAAGGAGCGUGAUUAAGCACAGGUAGGUCGCUGCGUUGAUCGAGCGUUAGCUCGAUAA [SSArg A #9]	15.8	25.1	22.4	22.3	19
GCCUCAUGUAGAAGGAGCGUCAGAAGCUACAGACAUGAGGAUCACCCAUGUUAGUUGAUCUGACAGGUAGGUCGCUACAGCAGGA [Arg B SS t7]	26.7	44.9	41.1	34.9	37
AGUCUUGAACGAAGGAGCGACGUACAUGAGGAUCACCCAUGUGUGGAGCGAAAGCUCCAACGUCAGGUAGGUCGCGUUCGAGACA [Omei Arginine B SS A v2]	14.9	18	14.9	13.9	12.8
ACUAGUUGUGCAGAUACCAGGCACGAGGAUCACCCGUGUUUGGGAUGUUCGCAUCUUCCUGUCCCUUGGCAGCUGUACAUCUAGA [Omei Theo B Exc v9]	29.6	54.3	155	37.4	30.9
AAGUGGCACGGAAGGAGCGAGUUUACCUAGAUAACAUGAGGAUCACCCAUGUAUAAUGGGACUCAGGUAGGUCGCCGUUGUCACU [#29 Same State - Arginine B]	24.9	51	32.8	30.7	34.8
UGACAUUGCUCAGAUACCAGACAUGAGCAUCAGCCAUGUGCCAACAAGUACAAAAUAAAAGUCCCUUGGCAGCUGAGCAAUGUCU [TheoBX 21 #MS2Left #AlternativeMS2 #Theo2]	11.3	11.3	29.1	10.6	9.88
AAACCAAGGGAUGGGUGCCUUGGUAGUGAUACCAGCCUGGAAACAGGCCCUUGGCAGCACAUGAGGAUCACCCAUGUGAAAUAAU [TheoAX 18#OpenEnded]	22.9	89.6	69.2	46.6	27.7
UGAUGGAACGGAAGGAGCGUGUAAGAACAAGAACAUGAGGAUCACCCAUGUAUUAAUUUAACACAGGUAGGUCGCCGAGAUAUUG [11.E]	19.8	23.1	17.3	13.5	14.5
GAUACCAUGAUCCUCCUGGUAUCGGCUGAUACCAGCCAGCUGACUGGCCCUUGGCAGCAGCAUACAUGAGGAUCACCCAUGUUAA [(T)''-(M)'-(T)'-(Theo)-(Ms2)_Design4]	35.4	163	–	61	–
UGACAUUGCUCAGAUACCAGACACGAGGAUCACCCGUGUGCCAACAAGUACAAAAUAAAUGUCCCUUGGCAGCUGAGCAAUGUCU [TheoBX 24 #MS2Left #AlternativeMS2 #Theo22]	11.9	16	26.1	12.2	12.2
AGCCGGAUUACGGCCGCCACUGUAGACGUGACGAAAGUCGCGUCAACAUGAGGAUCACCCAUGUACAGGACCGGGUGGUCCGGCG [Omei Trp B SS A v1]	15	22.2	17.8	6.02	13.7
GGGUACAUCGCGGCCGCCACUGGUGUAAAUACAUGAGGAUCACCCAUGUCGAUGGAGACAUCGGGUAGGACCGGGUGAUGUACCG	19.8	37.3	30.2	24.3	21.9
UCGCUCUGGGUGAGUUCCGGAGAUGUGGAAGGAGCGCUCGAAAGAGCAGGUAGGUCGCCAACGGACAUGAGGAUCACCCAUGUAC [Same State - Arginine A (Freestyle 21)]	33.8	76.1	34.4	40.3	39.1
AUAACAUGAGGAUCACCCAUGUAAGGUGAUACCAGACGAAGUAAAGUCCCUUGGCAGCACAAGCAUAGUUGCGAAUAUUGAUAGA [JR_SSTheophyA_Sub005]	264	532	–	632	–
CUGGACAUGAGGAUCACCCAUGUAAAUCCUCGAGGACCGGUACGGCCGCCACUCGAACGAGUGGCGCGCGAGCGCGCGCUCGCGC [aJa]	41.4	80.3	62.5	45.5	43.3
GGGUACAUCGCGGCCGCCACUUUUGUAAAUACAUGAGGAUCACCCAUGUCGAUGGAGACAUCGGUGAGGACCGGGUGAUGUACCG	196	523	721	295	624
UGUAUGGACUGAAGGAGCGGGUUGAUAACUUGAGGAUCACCCAGGUAAAAGGCGAAAGCCACCCAGGUAGGUCGCAGUCCAUACU	52.6	58.2	69.2	66.2	57.9
AGCACGGUGAUGGUAGCCGGACGCUAGGUACGAGGACCGGUACGGCCGCCACUCGAAGUCCUACGACAUGAGGAUCACCCAUGUA [Same State Trp A GF13]	37.9	59.2	75.2	–	–
